Results as given in paper PMC11236828 (Bioresources and Bioprocessing, 2024).

How the values were obtained:
Formate oxidase (FOx) = target: T1, Formate oxidase (FOx) (Aspergillus oryzae, UniProt Q2UD26); test: UV-visible absorption spectra of purified enzyme; assay type: binding; conditions: 4 °C
T1 construct: gene AO090012000349; synthetic gene in pET28a(+) (NdeI-HindIII), expressed in E. coli BL21(DE3), purified on Ni-Sepharose; His tag cleavage not mentioned; contains FAD / 8-formyl FAD
T1 sequence (Q2UD26 2-578): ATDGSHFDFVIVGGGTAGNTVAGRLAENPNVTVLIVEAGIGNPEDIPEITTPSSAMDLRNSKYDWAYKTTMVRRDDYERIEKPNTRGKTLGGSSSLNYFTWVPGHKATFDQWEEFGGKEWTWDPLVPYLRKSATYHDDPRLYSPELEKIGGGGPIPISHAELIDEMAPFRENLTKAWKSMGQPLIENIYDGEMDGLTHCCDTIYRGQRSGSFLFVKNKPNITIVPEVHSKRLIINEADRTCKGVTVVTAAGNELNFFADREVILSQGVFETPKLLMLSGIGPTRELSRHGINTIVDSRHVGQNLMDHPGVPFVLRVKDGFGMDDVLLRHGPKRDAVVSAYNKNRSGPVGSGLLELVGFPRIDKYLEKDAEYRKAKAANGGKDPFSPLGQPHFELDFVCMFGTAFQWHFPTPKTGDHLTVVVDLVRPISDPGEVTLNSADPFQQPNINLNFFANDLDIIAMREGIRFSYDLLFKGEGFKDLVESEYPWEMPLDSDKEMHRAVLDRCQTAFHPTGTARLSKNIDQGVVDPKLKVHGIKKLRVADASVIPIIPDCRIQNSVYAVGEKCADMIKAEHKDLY

purified protein = substrate: O=CO; test: purified protein; conditions: 50 mM sodium acetate pH 5.0, 25 °C, air oxygen, enzyme 14 h after purification (8-formyl FAD formed)

## Cc1cc2nc3c(=O)[nH]c(=O)nc-3n(C[C@H](O)[C@H](O)[C@H](O)COP(=O)(O)OP(=O)(O)OC[C@H]3O[C@@H](n4cnc5c(N)ncnc54)[C@H](O)[C@@H]3O)c2cc1C [FAD]
Formate oxidase (FOx); copurified cofactor, autocatalytically converted to 8-formyl FAD
  UV-visible absorption spectra of purified enzyme: conversion of FAD to 8-formyl FAD within the active site of FOx

## Cc1cc2nc3c(=O)[nH]c(=O)nc-3n(C[C@H](O)[C@H](O)[C@H](O)COP(=O)(O)OP(=O)(O)OC[C@H]3O[C@@H](n4cnc5c(N)ncnc54)[C@H](O)[C@@H]3O)c2cc1C=O [8-formyl FAD]
Formate oxidase (FOx); formed in situ from bound FAD, 14 h
  UV-visible absorption spectra of purified enzyme: conversion of FAD to 8-formyl FAD within the active site of FOx

B1: Formate oxidase (FOx) (Aspergillus oryzae RIB40) (protein)
chain: T1 sequence (Q2UD26 2-578)
Purified protein
  Km: 96 ± 3.1 mM
  kcat: 102 s⁻¹
  kcat/Km: 1100 M⁻¹ s⁻¹
